Results on 14 sequences are retold here after the Immune Epitope Database (IEDB).

The target of assay [1] is HLA-B*44:02. Kind of assay: IEDB peptide-MHC binding, purified MHC/direct/fluorescence; filed as Kd, often an IC50 or EC50 that approximates it; ≥ and ≤ were set here for values at or beyond the usual limits of such assays. The conditions noted are these: source organism: Mammarenavirus juninense.
Assay [2] addresses HLA-A*29:02. The assay is described as above.
Assay [3] has as its target HLA-A*03:01. The assay is described as above.
The target of assay [4] is HLA-B*58:01. Described as above. As to conditions: source organism: Mammarenavirus juninense.
Assay [5] addresses HLA-B*15:01. The description is as above. As to conditions: source organism: Mammarenavirus juninense.
Assay [6] has as its target HLA-C*07:02. Described as above.
In assay [7] the target is HLA-A*69:01. The description is as above. As to conditions: source organism: Mammarenavirus juninense.
Assay [8] deals with HLA-B*18:01. Described as above. The conditions noted are these: source organism: Mammarenavirus juninense.
Assay [9] concerns the target HLA-B*46:01. Described as above. The conditions noted are these: source organism: Mammarenavirus juninense.
Assay [10] addresses HLA-A*31:01. Described as above.
Assay [11] deals with HLA-B*57:01. Described as above. As to conditions: source organism: Mammarenavirus juninense.
Assay [12] concerns the target HLA-A*02:01. The description is as above. The conditions noted are these: source organism: Mammarenavirus juninense.
Assay [13] concerns the target HLA-B*48:01. The assay is described as above. The conditions noted are these: source organism: Mammarenavirus juninense.
Assay [14] has as its target HLA-A*01:01. Described as above.
In assay [15] the target is HLA-B*39:01. Description: IEDB peptide-MHC binding, purified MHC/competitive/fluorescence; filed as Kd, often an IC50 or EC50 that approximates it; ≥ and ≤ were set here for values at or beyond the usual limits of such assays.
The target of assay [16] is HLA-B*08:01. Description: IEDB peptide-MHC binding, purified MHC/competitive/fluorescence; ≥ and ≤ were set here for values at or beyond the usual limits of such assays.
Assay [17] concerns the target HLA-A*24:02. The assay is described as above.
Assay [18] addresses HLA-A*02:01. Described as above.
The target in assay [19] is HLA-A*01:01. Described as above.
For assay [20], the target named is HLA-A*11:01. The assay is described as above.
The target of assay [21] is HLA-A*03:01. Described as above.
Assay [22] concerns the target HLA-B*15:01. The assay is described as above.
Assay [23] deals with HLA-B*07:02. Described as above. The conditions noted are these: source organism: Vaccinia virus.
Assay [24] concerns the target HLA-A*29:02. Description: IEDB peptide-MHC binding, purified MHC/competitive/fluorescence; filed as Kd, often an IC50 or EC50 that approximates it; ≥ and ≤ were set here for values at or beyond the usual limits of such assays. The conditions noted are these: source organism: Measles morbillivirus.
Assay [25] concerns the target HLA-A*01:01. The description is as above.
Assay [26] concerns the target HLA-A*02:19. Description: IEDB peptide-MHC binding, purified MHC/direct/fluorescence; filed as Kd, often an IC50 or EC50 that approximates it; ≥ and ≤ were set here for values at or beyond the usual limits of such assays. As to conditions: source organism: Zaire ebolavirus.
For assay [27], the target named is HLA-A*02:11. Described as above. As to conditions: source organism: Zaire ebolavirus.
For assay [28], the target named is HLA-A*02:12. The description is as above. As to conditions: source organism: Zaire ebolavirus.
Assay [29] addresses HLA-A*68:02. The description is as above. As to conditions: source organism: Zaire ebolavirus.
The target of assay [30] is HLA-B*51:01. Kind of assay: IEDB peptide-MHC binding, purified MHC/competitive/fluorescence; filed as Kd, often an IC50 or EC50 that approximates it; ≥ and ≤ were set here for values at or beyond the usual limits of such assays. The conditions noted are these: source organism: Zaire ebolavirus.
The target of assay [31] is HLA-A*26:01. Described as above. The conditions noted are these: source organism: Zaire ebolavirus.
The target of assay [32] is HLA-B*15:17. Described as above.
The target of assay [33] is HLA-A*69:01. Described as above. As to conditions: source organism: Zaire ebolavirus.
The target of assay [34] is HLA-B*18:01. Described as above.
In assay [35] the target is HLA-B*27:03. The description is as above. As to conditions: source organism: Zaire ebolavirus.
Assay [36] has as its target HLA-B*46:01. The assay is described as above. As to conditions: source organism: Zaire ebolavirus.
In assay [37] the target is HLA-B*57:01. The assay is described as above.
Assay [38] concerns the target HLA-A*02:01. The description is as above. As to conditions: source organism: Zaire ebolavirus.
The target in assay [39] is HLA-B*15:01. The description is as above. The conditions noted are these: source organism: Human immunodeficiency virus 1.
Assay [40] deals with HLA-A*30:01. The description is as above. As to conditions: source organism: Human immunodeficiency virus 1.
The target in assay [41] is HLA-A*02:03. The assay is described as above. The conditions noted are these: source organism: Human immunodeficiency virus 1.
The target of assay [42] is HLA-A*11:01. Description: IEDB peptide-MHC binding, purified MHC/direct/fluorescence; filed as Kd, often an IC50 or EC50 that approximates it; ≥ and ≤ were set here for values at or beyond the usual limits of such assays. The conditions noted are these: source organism: Camelpox virus CMS.
Assay [43] addresses HLA-A*30:01. Described as above. As to conditions: source organism: Camelpox virus CMS.
[44] abbreviates: source organism: Mammarenavirus juninense.
Where [45] appears, read: source organism: Vaccinia virus Copenhagen.
Where [46] appears, read: source organism: Sudan ebolavirus.
Setting [47] is: source organism: Vaccinia virus.
The mark [48] stands for this setting: source organism: Zaire ebolavirus.
Where [49] appears, read: source organism: Human immunodeficiency virus 1.
The mark [50] stands for this setting: source organism: Camelpox virus CMS.

Take FRRVAHSSL: the Kd was at least 20 µM in [1]; at least 20 µM in [2] (setting [44]); at least 20 µM in assay [3] (setting [44]); at least 20 µM in assay [4]; at least 20 µM in assay [5]; 0.053 µM in assay [6] (setting [44]). Besides, the Kd in [7], in assay [8], in [9], in assay [10] (setting [44]), in assay [11] and in assay [12] was at least 20 µM each time. In addition, the Kd in assay [13] is at least 20 µM; in [14] (setting [44]) it was at least 20 µM; in [15] (setting [44]), 0.377 µM.
With TFALKKLII, the IC50 is at least 132 µM in assay [16] (setting [45]), 0.323 µM in assay [17] (setting [45]) and at least 131 µM in [18] (setting [45]).
For the sequence VSYEAGEWA, the IC50 in assay [18] (setting [46]) was determined as 15 µM; in assay [19] (setting [46]), 50.3 µM.
In the case of WAMEKSSKY, the IC50 in assay [20] (setting [47]) is at least 130 µM; in assay [21] (setting [47]), at least 265 µM; in [22] (setting [47]), 9.18 µM; in assay [23], at least 624 µM; in assay [18] (setting [47]), at least 122 µM; in assay [19] (setting [47]), 36.8 µM.
For the sequence SFSYFYPFR, the Kd in assay [24] was 0.458 µM; in assay [25] (source organism: Measles morbillivirus), at least 20 µM.
For GTNETEYLF, the half-maximal inhibitory concentration (IC50) is 8.71 µM in assay [17] (setting [48]), 20.9 µM in assay [18] (setting [48]) and at least 373 µM in assay [19] (setting [48]).
In the case of NSTHNTPVY, the values for the IC50 in assay [22] (setting [48]) and in [19] (setting [48]) were at least 119 µM and 29.1 µM, respectively. Further, the dissociation constant Kd in assay [2] (setting [48]), in assay [3] (setting [48]), in [26], in assay [27], in [28] and in [29] was at least 20 µM each time. Further, the Kd in [14] (source organism: Ebola virus - Eckron (Zaire, 1976)) was at least 20 µM; in [30], at least 20 µM; in assay [31] it was at least 20 µM; in assay [32] (setting [48]), at least 20 µM; in assay [33] it was at least 20 µM; in assay [34] (setting [48]), at least 20 µM. The Kd in assay [35], in assay [36], in [37] (setting [48]), in assay [15] (setting [48]) and in [38] was at least 20 µM throughout.
With KSLYNTVATLY, the Kd was at least 20 µM in [39]; at least 20 µM in assay [40]; 0.0064 µM in assay [32] (setting [49]); at least 20 µM in [41]; at least 20 µM in assay [34] (setting [49]); 0.959 µM in assay [37] (setting [49]). Moreover, the Kd in [25] (setting [49]) was at least 20 µM.
As for GSYGEYQSY, the IC50 in assay [20] (setting [48]) is 1.29 µM; in assay [21] (setting [48]) it was 26.1 µM; in [22] (setting [48]), 3.51 µM; in assay [18] (setting [48]), at least 154 µM; in assay [19] (setting [48]), 9.91 µM.
Turning to VRQRVIPVY, the 50% inhibitory concentration (IC50) in assay [16] (setting [48]) is at least 210 µM; in assay [22] (setting [48]), 3.26 µM; in assay [17] (setting [48]) it was 23.4 µM; in assay [18] (setting [48]), at least 524 µM.
INPIVKTSL: the IC50 in assay [16] (setting [47]) is at least 88.4 µM; in [23], 21.1 µM.
Regarding HYRPYHYYH, the Kd is at least 20 µM in [42]; at least 20 µM in assay [3] (setting [50]); 0.023 µM in assay [43]; 0.013 µM in [6] (setting [50]); 0.0032 µM in [10] (setting [50]).
Sequence HSDTAKAFA displayed a dissociation constant Kd in assay [25] (source organism: Escherichia coli) of at least 20 µM.
As for DFHERPVIL, the IC50 in [16] (source organism: Variola virus) was at least 88.5 µM; in assay [17] (source organism: Variola virus) it was 0.0313 µM.

The Kd is the concentration at which binding is half-saturated. By IC50 is commonly meant the concentration at which inhibition is half-maximal.
